US12723078 (University of Texas, dated 2026)

Target: T1, human LILRB1 recombinant protein (human, UniProt Q8NHL6 24-461)
T1 construct: The ELISA method says only 'LILRB1 recombinant proteins' coated on plates; also called leukocyte immunoglobulin-like receptor subfamily B member 1
Assay: ELISA, B cell supernatant

T1 sequence (Q8NHL6 24-461 limits assumed): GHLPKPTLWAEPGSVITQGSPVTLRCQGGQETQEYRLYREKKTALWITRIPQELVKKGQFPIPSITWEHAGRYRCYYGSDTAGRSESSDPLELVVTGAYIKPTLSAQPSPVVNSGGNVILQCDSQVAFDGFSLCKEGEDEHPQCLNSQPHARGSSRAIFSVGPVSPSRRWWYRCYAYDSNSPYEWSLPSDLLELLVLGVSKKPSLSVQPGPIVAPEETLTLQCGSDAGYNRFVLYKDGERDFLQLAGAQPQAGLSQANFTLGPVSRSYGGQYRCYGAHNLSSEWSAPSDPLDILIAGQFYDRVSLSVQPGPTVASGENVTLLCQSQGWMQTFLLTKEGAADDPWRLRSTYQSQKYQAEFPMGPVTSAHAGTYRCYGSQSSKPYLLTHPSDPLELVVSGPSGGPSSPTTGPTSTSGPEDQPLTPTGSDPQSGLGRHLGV

B1: mAb of B cell clone 220 (supernatant) (antibody, V domains shown)
VH: QSVEESGGGLVQPEGSLTLTCTASGFSFSGIVYMCWVRQAPGKGLEWIACAFVGSGGSTYYATWATGRFTISKTSSTTVTLQMTSLTAADTATYFCAKSYNYNGLGLWGPGTLVTVSS
VL: ELDMTQTPASVSAAVGGTVTIKCQASQSITNALAWYQQKPGQPPKLLIYRASTLASGVSSRFKGSGSGTEFTLTISDLECADAATYYCQCSYYGSTYFGSPFGGGTEVEIK
notes: rabbit; also called B1-#220
For B1, the OD450 was 2.24 OD450.

B2: mAb of B cell clone 7 (supernatant) (antibody, V domains shown)
VH: EQSLEESGGGLVKPGASLTVTCAVSGFSLNSYAITWVRQAPGKGLEYIGYIDTGASITDYASWAKGRFTISKTSSTTVTLEMTSLTDADTATYFCARGFSMFKLWGPGTLVTISS
VL: ELDLTQTPSSVSAAVGGTVTISCQASQSVYGNNRLAWYHQKPGQPPKRLIYLASTLDSGVPSRFKGAGSGTQFTLTISDLECDDAATYYCAGGYAGNFNAFGGGTEVEIK
notes: rabbit; also called B1-#7
With B2 the OD450 was 2.4 OD450.

B3: mAb of B cell clone 19 (supernatant) (antibody, V domains shown)
VH: EQSVEESGGGLVKPEGSLTLTCKASGLDFSSSYWSCWVRQTPGRGLEWIGCIDVGSSGGSYYASWARGRFTVSKGSSTTVTLQMTSLTAADTATYFCASTTTNVFGYDLWGPGTLVTVSS
VL: ELDLTQTPASVSEPVGGTVTIKCQASQNIYNNLAWYQQKPGQPPKLLIYYASTLASGVPPRFSGSGSGTEYTLTISDLECDDAATYYCQNNAGIYGGYGHGFGGGTEVVVK
notes: rabbit; also called B1-#19
Binder B3 has an OD450 of 2.32 OD450.

B4: mAb of B cell clone 28 (supernatant) (antibody, V domains shown)
VH: EQSLEESGGGLVKPGASLTLTCKASGFSFSSDYDMCWVRQAPGKGLEWIGCIVTGFSGRIYYATWARGRFTFSRTSSTTLTLQMTSLTAADTATYFCARDSGNYNWDLWGPGTLVTISS
VL: ELDLTQTPTSVSAAVGGTVTIKCQASQSISDYLSWYQQKPGQPPKLLIYRASTLASGVPSRFKGSGSGTEFTLTISDLECADAATYYCQSNYYGSQGCTFGGGTEVEIK
notes: rabbit; also called B1-#28
With B4 the OD450 was 2.27 OD450.

B5: mAb of B cell clone 198 (supernatant) (antibody, V domains shown)
VH: QSLEESGGGLVKPEGSLTLTCTASGFDLSNNYYICWVRQAPGKGLELIACVDSDLTDSADYASWAKGRFTISKTSSTTVTLQMTSLTAADTATYFCAGSGSGYYYYYGMDLWGPGTLVTISS
VL: ELDMTQTPASVSEPVGGTVTIKCQASQSIGSYLAWYQQKPGQPPKLLAFYASTLKSGVPPRFKGSGSGTEFTLTISDLECADAATYYCQSNRLSSSDVNAFGGGTEVEIK
notes: rabbit
For B5, the OD450 was 2.28 OD450.

B6: mAb of B cell clone 56 (supernatant) (antibody, V domains shown)
VH: QSLEESGGDLVQPEGSLTLTCTASGFSFSINLYMCWVRQAPGKGLEWIACIYGNNNANTYYTTWAKGRFTISKTSPTTVTLQMTSLTGADTATYFCARDTAAYYAFSLWGPGTLVTISS
VL: ELVMTQTPSSSSAAVGGTVTIKCQASQSIGSRFAWYQQKPGQRPKLLIYEASKLPSGVPSRFKGSGSGTEFTLTISDLECADAAIYYCQCTYYESSSGGGFGGGTEVVVK
notes: rabbit; also called B1-#56
With B6 the OD450 was 2.09 OD450.

B7: mAb of B cell clone 226 (supernatant) (antibody, V domains shown)
VH: QEQLVESGGGLVQPEGSLTLTCTASGFSFSSRQYISWVRRAPGKGLEWIGAIVTVNNKVHYANWAKGRFTISEASSTTVTLQMTSLTAADTATYFCARWRTFGLWGPGTLVTVSS
VL: ELVLTQTPSSKSVAVGDTVTINCQASENVYSNNYTSWFQQKPGQPPKQLLYYAAYRASGVPSRFKGSGSGTEFTLSISDVVCDDAATYYCSGHKDYSDDGSTFGGGTEVVVK
notes: rabbit
For B7, the OD450 was 2.38 OD450.

B8: mAb of B cell clone 209 (supernatant) (antibody, V domains shown)
VH: SQSVEESGGDLVKPGGTLTLTCTASRIDLNNYYYISWVRQAPGKGLEWIGVVATDSSVTWYASWAKGQFTISKTSSTTVTLQMTSLTAADTATYFCARGSGAATNGVWWVMGDGMDLWGPGTLVTVSS
VL: ELVMTQTPASVSEPVGGTVTIKCQASQSISSYLSWYQQKPGQPPKRLIYKASTLASGVPSRFKGSGSGTEFTLTISGVQCADAATYYCQNNYHSGSSNGGGFAFGGGTEVEIK
notes: rabbit
For B8, the OD450 was 2.18 OD450.

B9: mAb of B cell clone 10 (supernatant) (antibody, V domains shown)
VH: EQSVEESGGGLVKPEGSLTLTCKASGLDFSSSYWICWVRQAPGKGLEWIACIDTGSSGSTYYASWAKGRFTVSKTSSTTVSLQMTSLTAADTATYFCASTPNSLGYDLWGPGTLVTISS
VL: ELDLTQTPASVSAAVGGTVTIKCQASQNIVSNLAWYQQKPGQRPKLLIYYASTLASGVPSRFKGSGSGTEYTLTISDLECADAATYYCQNNAGIYGNYGHGFGGGTELEIK
notes: rabbit; also called B1-#10
In the case of B9, the OD450 is reported as 2.17 OD450.

B10: mAb of B cell clone 196 (supernatant) (antibody, V domains shown)
VH: QEQLVESGGGLVQPEGSLTLTCTDSGFSFTKNYYMCWVRQAPGKGLEWIGCIYAGSTNTFYASWAKGRFTISKASSTTVDLKMTSLTVADTATYFCARDFVSYLNLWGPGTLVTVSS
VL: ELDMTQTPSSTSAAVGGTVTIKCQASQSVYNNNQLSWFQQKPGQPPKRLIYGASTLESGVPSRFSGSGSGTQFTLTISDLECDDAATYYCQGAVSSDYYPFGGGTEVEIK
notes: rabbit
Work on B10 yielded an OD450 of 2.27 OD450.

B11: mAb of B cell clone 221 (supernatant) (antibody, V domains shown)
VH: QSLEESGGDLVKPGASLTLTCTASGFSFSSSYYMCWVRQAPGKGLEWIACIYGGSTGTTYYASWAKGRFTISKTSSTTVTLQMTSLTGADTATYFCARSYNSASSGYYWDLWGPGTLVTVSS
VL: ELDLTQTPSSVEAAVGGTVTIKCQASQSIGSNLAWYQQKPGQPPKVLIYKASTLASGVPSRFKGSGSGTQFTLTISDLECADAATYYCQNNNYWSNGNHFGGGTEVVVK
notes: rabbit
B11 showed an OD450 of 1.64 OD450.

B12: mAb of B cell clone 15 (supernatant) (antibody, V domains shown)
VH: EQSVEESGGDLVKPGASLTLTCTASGFSSSSSAYMCWVRQAPGKGLEWIACIFIGSGSDSYYATWAKGRFTISKTSSTTVTLQMTSLTAADTATYFCARNTYDWNGYIYGPCYFGLWGPGTLVTISS
VL: ELDLTQTPSSVEAAVGGTVTIKCQASQSIYNYLAWYQQKPGHSPKLLIYDVSKLASGVSSRFKGSGSGTEFTLTISDLECADAATYYCQSYYGNTVSFTFGGGTEVEIK
notes: rabbit; also called B1-#15
B12 showed an OD450 of 2.5 OD450.

B13: mAb of B cell clone 203 (supernatant) (antibody, V domains shown)
VH: QSLKESEGDLVKPGASLTLTCTASGFSFSSSYWICWVRQAPGKGLEWIACIYAGSSGSTYYASWAKGRFTISKTSSTTVTLEMTSLTDADTATYFCARGFSMFKLWGPGTLVTISS
VL: ELVLTQTPSSVEAAVGGTVTIKCQASQSIGSYLAWYQQKPGQPPKLLIYKASTLSSGVSSRYKGSGSGTEFTLTISDLECDDAATYYCQYTSYSSGGAFGGGTEVVVK
notes: rabbit
With B13 the OD450 was 1.75 OD450.

B14: mAb of B cell clone 25 (supernatant) (antibody, V domains shown)
VH: EQSVKESGGGLVQPEGSLTLTCKVSGIDFNYYNYYYMCWVRQAPGKGLEWIGCMSTASANIYLASWAKGRFTISEASSTTVTLQMTSLTAADTATYFCAKSHGGDGGYGVVLWGPGTLVTISS
VL: ELDLTQTPFSVSAAVGGTVTIKCQASETISNRLAWYQQKPGQPPKLLIYSASTLESGVPSRFKGSGSGTEFTLTISDLECADAATYYCQSIRSSSGIVHPNTFGGGTEVEIK
notes: rabbit; also called B1-#25
B14 gave an OD450 of 2.3 OD450.

B15: mAb of B cell clone 41 (supernatant) (antibody, V domains shown)
VH: QSVKESGGDLVKPGASLTLTCTASGFSFSSSYWICWVRQAPGKGLEWIACIYAGSSGSTYYASWAKGRFTISKTSSTTVTLQMTSLTAADTATYFCARSTSGSYGAGLGLWGPGTLVTISS
VL: ELDMTQTASPVSGAVGGTVTIKCQASQNIYNNIGWYQQKPGQPPNLLIYGPSYLASGVPSRFKGSRSGTEYTLTISDLECADAATYYCQSDDWMSISPDIVFGGGTEVEIK
notes: rabbit; also called B1-#41-1
In the case of B15, the OD450 is reported as 2.26 OD450.

B16: mAb of B cell clone 22 (supernatant) (antibody, V domains shown)
VH: EQSLEESGGGLVKPGASLTLTCKASGFDFSSNDYMCWVRQAPGKGLEWIGCIYGGDGHTYYATWAKGRFTISKASSTTVTLQMTSLTAADTASYFCARGYSYGDTGYADAILTLDLWGPGTLVTVSS
VL: ELDLTQTPASVEAAVGGTVTIKCQASQTIGSYLSWYQQKPGQRPKLLIYEASKLASGVPSWFKGSGSGTEFTLTISDLECADAATYYCQSNYYRAGGNYGGAFGGGTEVEIK
notes: rabbit; also called B1-#22
Binder B16 has an OD450 of 1.84 OD450.

B17: mAb of B cell clone 18 (supernatant) (antibody, V domains shown)
VH: EQSVKESGGGLVKPGGTLTLTCIVSGFSLSRYAVTWVRQAPGKGPEWIGYIDTSSGNKDYANWVNGRFTISKTSSTTVTLQMTSLTAADTATYFCARGFSMFKLWGPGTLVTISS
VL: ELVMTQTPSSVSAAVGGTVTISCQASQSVYNNNNLAWYQQKPGQPPKRLIYSASTLDSGVPSRFSGSGSGTQFTLTISDLECDDAATYYCAGGYTYNINIFGGGTEVEIK
notes: rabbit; also called B1-#18
B17 was tested, and the OD450 was 2.41 OD450.

B18: mAb of B cell clone 27 (supernatant) (antibody, V domains shown)
VH: EQSVKESGGGLVQPEGSLTLTCTVSGFSFSGSYWICWVRQAPGKGLEWIACIYGDSIATYYPNWAKGRFTISKTSSTTVTLQMASLTGADTATYFCARDRNGGSGAYGWDLWGPGTLVTISS
VL: ELDLTQTPASVSEPVGGTVTITCQASQSISSYLSWYQQTPGQPPKLLIYKASTLASGVPSRFKGSGSGTEFTLTISDLECADAATYYCQSYYYISATVDNTFGGGTEVEIK
notes: rabbit; also called B1-#27
For B18, the OD450 was 2.56 OD450.

B19: mAb of B cell clone 202 (supernatant) (antibody, V domains shown)
VH: SQSLEESGGGLVKPGASLTLTCKGSGFSFNGDYYMCWVRQTPGKGLEWIGCIYAAGDDTYYATWAKGRFTISKTSSTTVTLQMTSLTAADTATYFCARDQADSYAFGLWGPGTLVTISS
VL: ELVLTQTASPVSGAVGGTVTIKCQASQNIYSNLAWYQQKPGQPPKLLIYSASKLASGVPSRFKGSGSGTEYTLTISGVQCEDAATYYCQSYYYTASADTTFGGGTEVEIK
notes: rabbit
Binder B19 has an OD450 of 1.95 OD450.

B20: mAb of B cell clone 38 (supernatant) (antibody, V domains shown)
VH: EQSVEESEGGLVQPEGSLTLTCTASGFSFSNDYWICWVRQAPGKGLEWIGCGHIGSFRTTYYASWAKGRFSISKTSSTTVTLQMTSLTGADTATYFCARSPYDDGYGGFTFNLWGPGTLVTISS
VL: ELDMTQTPSSVEAAVGGTVTVKCQVSQSIGNAIAWYQQKPGQPPKLLIYKASTLASGVPSRFKGSGSGTEFTLTISDLECADAATYYCQNYYYSNTNSFGGGTEVVVK
notes: rabbit; also called B1-#38
B20 was tested, and the OD450 was 2.32 OD450.

B21: mAb of B cell clone 224 (supernatant) (antibody, V domains shown)
VH: EQSVEESGGGLVQPEGSLTLTCTASGIDFSSGAWICWVRQAPGKGLELIACIFTTSGFTYYASWAKGRFTISKTSSTTVTLQMTSLTAADTATYFCARDIYSYGMDLWGPGTLVTISS
VL: ELVLTQTPSSVSEPVGGTVTIKCQASQSISSSYLAWYQQKPGQPPKFLIYSASTLASGVPSRFKGSGSGTEFTLTISDLECADAATYYCQSTYISSSNYGAAFGGGTEVEIK
notes: rabbit
Work on B21 yielded an OD450 of 2.09 OD450.

B22: mAb of B cell clone 210 (supernatant) (antibody, V domains shown)
VH: QSVEESEGRLVTPGGSLTLTCTVSGIDLSSYAMGWVRQAPGKGLEWIGVIGKSGTTYYANWAKGRFTISKTSTTVDLQIASPTTEDTATYFCARAGASRSIYYDLWGQGTLVTISS
VL: ELVLTQTPSSKSVAVGDTVTINCQASESVYGNNRCSWYQQKPGQPPKLLIYQASTLASGVPSRFSGSGSGTQFTLTISDVVCDDAATYYCAGHKGTTNDGNDFGGGTEVEIK
notes: rabbit; also called B1-#210
B22 showed an OD450 of 1.75 OD450.
